Experimental data taken from article PMC5101663.

Target: Acinetobacter phage AP205 SpyTag-VLP (one SpyTag per VLP subunit) (Acinetobacter phage AP205)
Assay: covalent conjugation shown by reduced SDS-PAGE with densitometry; antigen and Spy-VLP mixed at 1.5:1 molar ratio (antigen per VLP subunit), overnight at 4 °C in PBS, 0.2% Polysorbate 80, pH 7.2; covalent SpyTag/SpyCatcher bond

## HIS-CSP-SpyCatcher antigen (from UniProt Q7K740 25-383)
  stoichiometry N (CSP antigens per VLP): 112
